This passage reports EC50, ADCC with human donor PBMCs (CytoTox-Glo) and EC50, FcγRIIIA activation in the ADCC-Glo reporter bioassay (Promega) results from patent US20210371505A1.

The target of this experiment is Hemagglutinin of A/Wisconsin/67/2005 (H3N2) overexpressed on 3T3 cells (Influenza A virus A/Wisconsin/67/2005 (H3N2)). The experiment is described as follows: cell-based or functional assay.

B1: H1H14612N2 (antibody, V domains shown)
VH: EVQLVESGGGLVKPGGSLRLSCAASGFSFSGFSMNWVRQAPGKGLEWVSSISTSGNYMYYADSVKGRFTISRDNAKKSFSLQMNSLRAEDSAIYYCARGGGYNWNLFDYWGQGSLVTVSS
VL: EIVLTQSPGTLSLSPGERATLSCRASQSLNSNYLAWYQQKPGQAPRLLIYGASSRATGIPDRFSGSGSGADFTLTISRLESEDFAVYYCQQYGNSPLTFGGGTKVEIK
Molecule B1 had an EC50, ADCC with human donor PBMCs (CytoTox-Glo) of 0.176 nM and an EC50, FcγRIIIA activation in the ADCC-Glo reporter bioassay (Promega) of 0.688 nM.
